Test results published in article PMC11906892.

Key:
[1] = target: ZER1 (ZYG11BL) (Homo sapiens, UniProt Q7Z7L7 520-766); test: ITC
[2] = target: ZYG11B (Homo sapiens, UniProt Q9C0D3 445-728); test: ITC
Sequence of ZYG11B (Q9C0D3 445-728): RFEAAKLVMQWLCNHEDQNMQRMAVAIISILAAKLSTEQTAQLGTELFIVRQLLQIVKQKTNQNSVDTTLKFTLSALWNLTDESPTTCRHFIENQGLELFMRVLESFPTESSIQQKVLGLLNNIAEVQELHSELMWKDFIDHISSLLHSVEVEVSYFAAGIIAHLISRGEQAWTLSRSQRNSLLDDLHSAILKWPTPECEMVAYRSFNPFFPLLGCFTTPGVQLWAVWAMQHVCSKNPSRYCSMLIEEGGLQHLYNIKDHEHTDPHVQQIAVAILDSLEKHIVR

Sequence of ZER1 (ZYG11BL) (Q7Z7L7 520-766): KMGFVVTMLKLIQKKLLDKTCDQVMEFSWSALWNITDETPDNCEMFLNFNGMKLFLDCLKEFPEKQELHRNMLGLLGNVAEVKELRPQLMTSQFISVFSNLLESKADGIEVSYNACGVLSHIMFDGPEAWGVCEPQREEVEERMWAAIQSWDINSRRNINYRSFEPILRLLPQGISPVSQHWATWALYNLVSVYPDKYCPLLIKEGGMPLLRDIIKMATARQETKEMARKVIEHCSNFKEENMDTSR

Binder: TCACCCGGTTGGGGCACACGTCTTGTTGATGGCTGC (ssDNA) [Apt#Z6]
- binding result [1]: no binding
- Kd [2]: 4.69 ± 2.19 µM
